Test results as given in patent US20200010563A1 (PROTHENA BIOSCIENCES, published 2020).
Values belong to the binder of their own block, whether it stands above or below them.

Legend:
[1] = target: T1, human MCAM domain 3 (amino acids 244-321) hFc construct (human, UniProt P43121 244-321); experiment: ForteBio BLI, MCAMhFc domains on anti-human IgG Fc sensors, antibody 5 ug/ml
T1 construct: One of the 'various MCAMhFc domains' immobilised on anti-human IgG Fc biosensors; also called MCAMhFc domain 3; not shown: human IgG Fc (hFc)
T1 sequence: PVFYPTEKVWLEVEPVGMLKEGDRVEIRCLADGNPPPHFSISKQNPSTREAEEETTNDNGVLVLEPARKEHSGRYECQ
Description: The following protocol was used: ForteBio anti-human IgG Fc biosensors were used to immobilize various MCAMhFc domains including full length MCAMhFc protein on to biosensor surface. […] After loading these samples into a black 96 well plate, the Octet Red was programmed as follows: 60 seconds for baseline #1; 180 seconds for loading various domains; 60 seconds for baseline #2; 180 seconds for association of antibody to domain; and 240 seconds for dissociation of antibody from domain.
1. MCAMhFc final concentration @ 5 ug/ml [0342] […] 3. ForteBio anti-human IgG Fc Capture (AHC) biosensors for kinetics experiments, cat#18-5060 [0344] 4. Block 96 well plate from Greiner Bio-one, cat#655209 [0345] 5. ForteBio Octet Red machine [0346] 6. Fresh tissue culture medium, DMEM with 20% FCS, was used as buffer for dilution The results from these analyses are as follows.

[2] = target: T2, human MCAM V340A mutant (V5/HIS6) on BHK cells (human, UniProt P43121 24-646); experiment: shotgun mutagenesis, immunofluorescence on BHK cells
T2 sequence: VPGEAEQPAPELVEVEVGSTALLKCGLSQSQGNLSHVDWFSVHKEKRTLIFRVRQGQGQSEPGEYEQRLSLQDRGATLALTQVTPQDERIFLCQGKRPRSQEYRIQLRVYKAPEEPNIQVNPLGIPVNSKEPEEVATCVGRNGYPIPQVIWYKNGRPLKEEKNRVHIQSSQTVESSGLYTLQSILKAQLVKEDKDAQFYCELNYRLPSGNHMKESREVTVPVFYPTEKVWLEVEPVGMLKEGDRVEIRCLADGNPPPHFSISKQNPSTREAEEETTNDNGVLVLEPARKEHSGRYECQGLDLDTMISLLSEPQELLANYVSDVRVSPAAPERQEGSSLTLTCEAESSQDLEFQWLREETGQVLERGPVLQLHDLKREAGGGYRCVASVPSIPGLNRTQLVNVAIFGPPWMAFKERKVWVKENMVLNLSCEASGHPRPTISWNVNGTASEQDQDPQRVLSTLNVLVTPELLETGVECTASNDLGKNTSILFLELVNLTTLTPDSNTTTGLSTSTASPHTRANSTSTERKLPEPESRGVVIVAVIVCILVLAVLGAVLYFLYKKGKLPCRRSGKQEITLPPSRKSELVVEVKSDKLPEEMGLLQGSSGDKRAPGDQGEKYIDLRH
Method: (§1) The mutation library was assayed for surface expression (mouse sera binding) and monoclonal antibody binding, in triplicate. Each raw data point was background-subtracted and normalized to the wild type MCAM reactivity values. The mean monoclonal antibody binding value for each clone is plotted as a function of its mean surface expression value (FIG. 1, gray diamonds). Thresholds of <30% monoclonal antibody reactivity and >50% mouse sera binding were applied to identify clones (FIG. 1, black diamonds) that were negative for monoclonal antibody binding but positive for surface expression.
(§2) Residues involved in antibody binding were identified as those that were negative for monoclonal antibody binding (<30% WT) but positive for surface expression (>50% WT) (Table 4). The mean reactivity (and standard deviation) were determined for each critical residue.

[3] = target: T3, human MCAM C272A mutant (V5/HIS6) on BHK cells (human, UniProt P43121 24-646); experiment: shotgun mutagenesis library, immunofluorescence on BHK cells, triplicate; standard deviation in brackets
T3 sequence: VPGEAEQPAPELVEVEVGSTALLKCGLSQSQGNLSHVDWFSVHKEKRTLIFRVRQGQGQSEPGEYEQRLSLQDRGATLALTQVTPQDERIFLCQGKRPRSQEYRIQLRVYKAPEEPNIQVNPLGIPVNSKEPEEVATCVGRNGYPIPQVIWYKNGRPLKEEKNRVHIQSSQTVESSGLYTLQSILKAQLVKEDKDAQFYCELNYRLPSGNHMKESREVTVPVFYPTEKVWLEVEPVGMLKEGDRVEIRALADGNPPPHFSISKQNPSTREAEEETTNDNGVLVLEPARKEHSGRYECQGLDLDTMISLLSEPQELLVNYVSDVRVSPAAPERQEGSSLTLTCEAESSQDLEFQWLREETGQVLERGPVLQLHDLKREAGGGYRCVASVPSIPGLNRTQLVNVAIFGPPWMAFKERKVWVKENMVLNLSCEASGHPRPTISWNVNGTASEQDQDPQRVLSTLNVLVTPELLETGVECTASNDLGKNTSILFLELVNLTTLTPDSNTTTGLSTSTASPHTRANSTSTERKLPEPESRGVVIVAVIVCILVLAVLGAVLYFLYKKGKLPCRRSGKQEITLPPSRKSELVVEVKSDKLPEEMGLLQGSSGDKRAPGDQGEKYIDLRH
Method: as §1, §2

[4] = target: T4, human MCAM Y318A mutant (V5/HIS6) on BHK cells (human, UniProt P43121 24-646); experiment: as above
T4 sequence: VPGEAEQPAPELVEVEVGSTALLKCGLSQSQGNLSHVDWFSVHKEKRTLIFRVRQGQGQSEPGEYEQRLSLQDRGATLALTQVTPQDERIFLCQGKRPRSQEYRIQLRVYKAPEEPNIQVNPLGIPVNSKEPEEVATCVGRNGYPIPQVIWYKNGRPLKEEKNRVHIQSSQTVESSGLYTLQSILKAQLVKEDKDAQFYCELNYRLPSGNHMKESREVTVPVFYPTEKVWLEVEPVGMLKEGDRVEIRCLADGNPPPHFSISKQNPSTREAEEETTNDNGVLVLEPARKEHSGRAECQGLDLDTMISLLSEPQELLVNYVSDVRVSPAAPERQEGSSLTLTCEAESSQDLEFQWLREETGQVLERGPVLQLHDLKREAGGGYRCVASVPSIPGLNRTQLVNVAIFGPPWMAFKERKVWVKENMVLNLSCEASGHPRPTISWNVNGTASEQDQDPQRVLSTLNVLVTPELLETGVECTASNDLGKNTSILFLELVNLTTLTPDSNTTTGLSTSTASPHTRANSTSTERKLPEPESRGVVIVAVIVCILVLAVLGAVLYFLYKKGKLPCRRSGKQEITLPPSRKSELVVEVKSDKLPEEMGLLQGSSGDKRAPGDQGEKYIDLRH
Method: as §1, §2

[5] = target: T2, human MCAM V340A mutant (V5/HIS6) on …; experiment: as above
Method: as §1, §2

[6] = target: T5, human MCAM W377A mutant (V5/HIS6) on BHK cells (human, UniProt P43121 24-646); experiment: as above
T5 sequence: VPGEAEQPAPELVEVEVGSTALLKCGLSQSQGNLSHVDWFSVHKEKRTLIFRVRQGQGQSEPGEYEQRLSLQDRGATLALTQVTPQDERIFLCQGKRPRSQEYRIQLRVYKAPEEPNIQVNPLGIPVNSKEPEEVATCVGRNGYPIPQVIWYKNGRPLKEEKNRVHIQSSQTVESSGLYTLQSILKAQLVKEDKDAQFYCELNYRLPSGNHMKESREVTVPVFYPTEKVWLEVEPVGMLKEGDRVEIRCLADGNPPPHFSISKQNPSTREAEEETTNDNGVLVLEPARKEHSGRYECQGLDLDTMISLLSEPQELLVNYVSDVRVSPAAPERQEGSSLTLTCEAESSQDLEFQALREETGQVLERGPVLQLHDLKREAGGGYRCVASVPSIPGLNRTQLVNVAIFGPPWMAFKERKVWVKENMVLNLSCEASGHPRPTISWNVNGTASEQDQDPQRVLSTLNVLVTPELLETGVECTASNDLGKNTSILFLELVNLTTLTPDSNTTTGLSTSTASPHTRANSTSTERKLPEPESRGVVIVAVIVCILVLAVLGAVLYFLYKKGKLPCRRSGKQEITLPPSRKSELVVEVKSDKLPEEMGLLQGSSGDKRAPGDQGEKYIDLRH
Method: as §1, §2

[7] = target: T6, human MCAM C320A mutant (V5/HIS6) on BHK cells (human, UniProt P43121 24-646); experiment: as above
T6 sequence: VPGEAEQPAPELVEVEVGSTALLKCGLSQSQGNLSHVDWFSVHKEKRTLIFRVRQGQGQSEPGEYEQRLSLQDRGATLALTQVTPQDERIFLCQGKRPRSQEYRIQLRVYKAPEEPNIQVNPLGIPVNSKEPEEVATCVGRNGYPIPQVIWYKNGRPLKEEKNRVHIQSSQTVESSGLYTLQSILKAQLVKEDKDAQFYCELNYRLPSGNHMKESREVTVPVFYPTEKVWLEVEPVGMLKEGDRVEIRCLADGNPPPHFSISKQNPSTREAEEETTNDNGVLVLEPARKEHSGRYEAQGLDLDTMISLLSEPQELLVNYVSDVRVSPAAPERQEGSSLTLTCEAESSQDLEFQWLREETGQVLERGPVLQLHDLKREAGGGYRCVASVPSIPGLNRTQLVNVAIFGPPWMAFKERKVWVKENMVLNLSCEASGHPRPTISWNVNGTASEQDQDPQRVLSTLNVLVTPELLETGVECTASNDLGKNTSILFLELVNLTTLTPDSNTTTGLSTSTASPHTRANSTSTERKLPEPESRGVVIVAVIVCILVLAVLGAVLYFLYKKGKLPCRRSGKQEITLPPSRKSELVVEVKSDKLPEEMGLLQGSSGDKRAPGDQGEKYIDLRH
Method: as §1, §2

binding result [1]: binds
B1: mouse anti-human MCAM monoclonal antibody clone 1414.1.2 (antibody, V domains shown)
VH: EIQLQQTGPELVKPGASVKISCKASGYSFTDYIMLWVKQSHGKSLEWIGNINPYSGSSGYNLKFKGKATLTVDKSSSTAYMQLNSLTSEDSAVYYCARGKDFAMDYWGQGTSVTVSS
VL: DIVMSQSPSSLAVSAGEKVTMSCKSSQSLLNSSTRKNFLAWYQQKPGQSPKLLIYWASTRESGVPDRFTGSGSGTDFTLTISSVQAEDLAVYYCKQSYNRYTFGGGTKLEIK
notes: Mouse hybridoma monoclonal

B2: mouse anti-human MCAM monoclonal antibody clone 1749.1.3 (antibody, V domains shown)
VH: DVKLVESGGDLVKPGGSLKLSCAASGFTFSSYIMSWVRQTPEKRLEWVATISSGGSSTYYPDSVKGRFTISRDNAKNTLYLQMSSLKSEDTAMYYCTRDDDYDVKVFAYWGQGTLVTVSA
VL: DIVMSQSPSSLAVSAGEKVTMNCKSSRSLLNSRIRKNYLAWYQQKPGQSPKLLIYWASTRESGVPDRFTGSGSGTDFTLTISSVQAEDLAVYYCKQSYNLLTFGAGTKLELK
notes: Mouse hybridoma monoclonal; also called m1749
binding result [2]: no binding (tested: <30% WT; 0.5 µg/mL antibody)
mean reactivity (% of wild type MCAM) [3]: 7.6 % of WT
mean reactivity (% of wild type MCAM) [4]: 7.1 % of WT
mean reactivity (% of wild type MCAM) [5]: 8.7 % of WT
mean reactivity (% of wild type MCAM) [6]: 13.7 % of WT
mean reactivity (% of wild type MCAM) [7]: 9.3 % of WT

binding result [1]: binds
B3: mouse anti-human MCAM monoclonal antibody clone 1415.1.1 (antibody, V domains shown)
VH: QVQLQQPGAELVQPGAPVKLSCKASGYIFTSYWMNWVKQRPGRGLEWIGRIDPSDSKIHYNQKFKDKATLTVDRSSSTAYIQLGSLTSEDSAVYYCAKEGGLRRGDYAMDYWGQGTSVTVSS
VL: DIVMTQSPATLSVTPGDRVSLSCRASQSISDYLHWYQQKSHESPRLLIKYASQSISGIPSRFSGSGSGSDFTLSINSVEPEDVGVYYCQNGHNFPRTFGGGTKLEIK
notes: Mouse hybridoma monoclonal

binding result [1]: binds
B4: mouse anti-human MCAM monoclonal antibody clone 1174.1.3 (antibody, V domains shown)
VH: QIQLVQSGPELKKPGETVKISCKASGYTFTNYGMNWVKQAPGKGLKWMGWINTYTGEPTYADDFKGRFALSLETSASTAYLQINNLKNEDMATYFCARYRYNKYERAMDYWGQGTSVTVSS
VL: DIVLTQSPASLAVSLGQRATISCRASKSVSTSGYSYMYWYQQKPGQPPKLLIYLASNLESGVPARFSGSGSGTDFTLNIHPVEEEDAATYYCQHSRELPFTFGSGTKLEIK
notes: Mouse hybridoma monoclonal
